# Assay results from PMC6054272, “Arabidopsis SKP1-like protein13 (ASK13) positively regulates seed germination and seedling growth under abiotic stress” (Journal of Experimental Botany, 2018).
# B1: Recombinant His-tagged ASK13 (natural protein, Arabidopsis thaliana, UniProt Q9M1X5 1-154, looked up)
# chain: MSKMVMLLSSDGESFQVEEAVAVQSQTIAHMIEDDCVANGVPIANVTGVILSKVIEYCKKHVVSDSPTEESKDELKKWDAEFMKALEQSSTLFDVMLAANYLNIKDLLDLGCQTVADMITGKKPDEIRALLGIENDFTPEEEEEIRKENQWAFE
# notes: ASK13 (SKP1-like protein13), Arabidopsis thaliana, At3g60010; sub-cloned into pET23d; Found as monomer and dimer; also called recombinant ASK13; his-tagged ASK13 protein; not shown: His tag, C-terminal, kept
# Target: the molecule itself
# Assay: SEC; purified recombinant His-tagged ASK13; Superose 6 column by the legend; fractions confirmed by dot blot with an anti-His antibody
protein,measurement,value
B1,stoichiometry N,2
